Data published in paper PMC4323659 (Scientific Reports, 2015).

Experiments:
VmoLac [1] = biological target: T1, VmoLac (Vulcanisaeta moutnovskia, UniProt F0QXN6); assay type: binding
T1 construct: gene VMUT_2255; full length, 315 residues; Strep tag removed by TEV protease; E. coli BL21(DE3)-pGro7/GroEL; homodimer; bi-cobalt enzyme

VmoLac [2] = biological target: T1, VmoLac; assay type: biochemical
CCC1CCC(=O)O1 = assay: purified protein; details: pH 8.3; 25.0 °C
CCCCCC1CCC(=O)O1 = assay: purified protein; details: pH 8.3; 25.0 °C
CCCCCCCC(=O)NC1CCOC1=O = assay: purified protein; details: pH 8.3; 25.0 °C
CCCCC1CCCC(=O)O1 = assay: purified protein; details: pH 8.3; 25.0 °C
CCCCCCCCC1CCC(=O)O1 = assay: purified protein; details: pH 8.3; 25.0 °C
CCCCCCCC1CCCC(=O)O1 = assay: purified protein; details: pH 8.3; 25.0 °C
CCCC1CCC(=O)O1 = assay: purified protein; details: pH 8.3; 25.0 °C
CCCCCCC1CCCC(=O)O1 = assay: purified protein; details: pH 8.3; 25.0 °C
[3] = tested on: CCCCCCCC(=O)CC(=O)N[C@H]1CCOC1=O; assay: purified protein; details: pH 8.3; 25.0 °C
[4] = tested on: CCCCCC(=O)CC(=O)N[C@H]1CCOC1=O; assay: purified protein; details: pH 8.3; 25.0 °C

For CCCCCCCC(=O)CC(=O)N[C@H]1CCOC1=O [XVI, 3-oxo C10 AHL], the “X-ray crystal structure, soaked crystal, 2.0 Å” value (VmoLac [1]) was “Crystals of VmoLac were soaked with 3-oxo-C10 AHL, and the lactone sits”.

Compound CCOP(=O)(OCC)Oc1ccc([N+](=O)[O-])cc1 [I, ethyl-paraoxon] has a Km (VmoLac [2]; HEPES 50 mM pH 8, NaCl 150 mM, CoCl2 0.2 mM, 25°C) of 581 ± 61 µM.

In the case of “VmoLac (Vulcanisaeta moutnovskia 768-28)”, the Km (CCC1CCC(=O)O1) is reported as 3.709 ± 0.497 mM, the kcat/Km (CCC1CCC(=O)O1) is reported as 30300 ± 4600 M⁻¹ s⁻¹ and the Km (CCCCCC1CCC(=O)O1) is reported as 47 ± 11 µM. It also gave a kcat/Km (CCCCCC1CCC(=O)O1) of 948000 ± 218000 M⁻¹ s⁻¹, a Km (CCCCCCCC(=O)NC1CCOC1=O) of 262 ± 54 µM and a kcat/Km (CCCCCCCC(=O)NC1CCOC1=O) of 2230 ± 480 M⁻¹ s⁻¹. It also gave a Km (CCCCC1CCCC(=O)O1) of 1220 ± 59 µM, a kcat/Km (CCCCC1CCCC(=O)O1) of 72900 ± 3700 M⁻¹ s⁻¹ and a K0.5 (CCCCCCCCC1CCC(=O)O1) of 2.1 ± 0.6 µM. It also gave a kcat/Km (CCCCCCCCC1CCC(=O)O1) of 77700 ± 24000 M⁻¹ s⁻¹, a K0.5 (CCCCCCCC1CCCC(=O)O1) of 839 ± 13 µM and a Km (CCCC1CCC(=O)O1) of 872 ± 220 µM. For the same compound, the kcat/Km (CCCC1CCC(=O)O1) was 31200 ± 8600 M⁻¹ s⁻¹, the Km (CCCCCCC1CCCC(=O)O1) was 105 ± 24 µM and the kcat/Km (CCCCCCC1CCCC(=O)O1) was 580000 ± 132000 M⁻¹ s⁻¹. The Km [3] was 231 ± 55 µM, the kcat/Km [3] was 2050 ± 500 M⁻¹ s⁻¹ and the Km [4] was 186 ± 37 µM. The kcat/Km [4] was 1880 ± 380 M⁻¹ s⁻¹.

For CC(=O)Oc1ccc([N+](=O)[O-])cc1 [VIII, pNP-Acetate], the “KM (μM)” value (VmoLac [2]) was 4 471 ± 593 μM.
